Test results published in the supplement of paper PMC10567573.

B1: INTS3 (parent)
chain: DLNSKGKKREFRFHPIKETVVEEP
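Note: lentivirally expressed fusions sorted by FACS into six bins by GFP to DsRed ratio, PSI derived from sequencing read proportions per bin multiplied by bin number.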

Variants of: B1
Test: protein stability index of a GFP-peptide fusion (GPS, HEK-293T) (PSI 1-6); higher = more stable
Conditions: c terminus: a fixed tail appended
For DLNGKGKKREFRFHPIKETVVEEP [S4G], the protein stability index was 2.13. With DLNHKGKKREFRFHPIKETVVEEP [S4H] the protein stability index was 2.24. Variant DLNIKGKKREFRFHPIKETVVEEP [S4I] has a protein stability index of 2.12. DLNKKGKKREFRFHPIKETVVEEP [S4K] gave a protein stability index of 2.08. DLNLKGKKREFRFHPIKETVVEEP [S4L] showed a protein stability index of 2. With DLNMKGKKREFRFHPIKETVVEEP [S4M] the protein stability index was 2.03. In the case of DLNNKGKKREFRFHPIKETVVEEP [S4N], the protein stability index is reported as 1.99. In the case of DLNPKGKKREFRFHPIKETVVEEP [S4P], the protein stability index is reported as 2.41. With DLNQKGKKREFRFHPIKETVVEEP [S4Q] the protein stability index was 1.88. Variant DLNRKGKKREFRFHPIKETVVEEP [S4R] has a protein stability index of 2.23. DLNTKGKKREFRFHPIKETVVEEP [S4T] gave a protein stability index of 2.49. With DLNVKGKKREFRFHPIKETVVEEP [S4V] the protein stability index was 2.71. DLNWKGKKREFRFHPIKETVVEEP [S4W] showed a protein stability index of 1.92. For DLNYKGKKREFRFHPIKETVVEEP [S4Y], the protein stability index was 2.24. With DLNSAGKKREFRFHPIKETVVEEP [K5A] the protein stability index was 2.43. Variant DLNSCGKKREFRFHPIKETVVEEP [K5C] has a protein stability index of 2.05. For DLNSDGKKREFRFHPIKETVVEEP [K5D], the protein stability index was 3.04. DLNSEGKKREFRFHPIKETVVEEP [K5E] showed a protein stability index of 2.88. Variant DLNSFGKKREFRFHPIKETVVEEP [K5F] has a protein stability index of 1.88. DLNSGGKKREFRFHPIKETVVEEP [K5G] showed a protein stability index of 2.54. DLNSHGKKREFRFHPIKETVVEEP [K5H] gave a protein stability index of 2.48. For DLNSIGKKREFRFHPIKETVVEEP [K5I], the protein stability index was 2.32. Variant DLNSLGKKREFRFHPIKETVVEEP [K5L] has a protein stability index of 2.07. In the case of DLNSMGKKREFRFHPIKETVVEEP [K5M], the protein stability index is reported as 2.05. Variant DLNSNGKKREFRFHPIKETVVEEP [K5N] has a protein stability index of 2.56. DLNSPGKKREFRFHPIKETVVEEP [K5P] gave a protein stability index of 2.69. DLNSQGKKREFRFHPIKETVVEEP [K5Q] gave a protein stability index of 2.44. In the case of DLNSRGKKREFRFHPIKETVVEEP [K5R], the protein stability index is reported as 2.25. Variant DLNSSGKKREFRFHPIKETVVEEP [K5S] has a protein stability index of 2.35. With DLNSTGKKREFRFHPIKETVVEEP [K5T] the protein stability index was 2.39. DLNSVGKKREFRFHPIKETVVEEP [K5V] showed a protein stability index of 2.76. With DLNSWGKKREFRFHPIKETVVEEP [K5W] the protein stability index was 2.32. DLNSYGKKREFRFHPIKETVVEEP [K5Y] showed a protein stability index of 2.26. Variant DLNSKAKKREFRFHPIKETVVEEP [G6A] has a protein stability index of 2.02. DLNSKCKKREFRFHPIKETVVEEP [G6C] gave a protein stability index of 2.23. DLNSKDKKREFRFHPIKETVVEEP [G6D] showed a protein stability index of 2.29. In the case of DLNSKEKKREFRFHPIKETVVEEP [G6E], the protein stability index is reported as 2.25. DLNSKFKKREFRFHPIKETVVEEP [G6F] gave a protein stability index of 1.74. DLNSKHKKREFRFHPIKETVVEEP [G6H] gave a protein stability index of 2.74. DLNSKIKKREFRFHPIKETVVEEP [G6I] showed a protein stability index of 1.59. Variant DLNSKKKKREFRFHPIKETVVEEP [G6K] has a protein stability index of 1.74. With DLNSKLKKREFRFHPIKETVVEEP [G6L] the protein stability index was 1.52. Variant DLNSKMKKREFRFHPIKETVVEEP [G6M] has a protein stability index of 2.4. In the case of DLNSKNKKREFRFHPIKETVVEEP [G6N], the protein stability index is reported as 2.37. In the case of DLNSKPKKREFRFHPIKETVVEEP [G6P], the protein stability index is reported as 2.42. For DLNSKQKKREFRFHPIKETVVEEP [G6Q], the protein stability index was 2.3. DLNSKRKKREFRFHPIKETVVEEP [G6R] gave a protein stability index of 1.33. Work on DLNSKSKKREFRFHPIKETVVEEP [G6S] yielded a protein stability index of 2.03. Variant DLNSKTKKREFRFHPIKETVVEEP [G6T] has a protein stability index of 2.38. In the case of DLNSKVKKREFRFHPIKETVVEEP [G6V], the protein stability index is reported as 2.56. DLNSKWKKREFRFHPIKETVVEEP [G6W] gave a protein stability index of 2.12. In the case of DLNSKYKKREFRFHPIKETVVEEP [G6Y], the protein stability index is reported as 1.95. DLNSKGAKREFRFHPIKETVVEEP [K7A] gave a protein stability index of 2.57. Work on DLNSKGCKREFRFHPIKETVVEEP [K7C] yielded a protein stability index of 1.86. DLNSKGDKREFRFHPIKETVVEEP [K7D] gave a protein stability index of 3.35. For DLNSKGEKREFRFHPIKETVVEEP [K7E], the protein stability index was 3.37. With DLNSKGFKREFRFHPIKETVVEEP [K7F] the protein stability index was 1.72. Work on DLNSKGGKREFRFHPIKETVVEEP [K7G] yielded a protein stability index of 2.28. DLNSKGHKREFRFHPIKETVVEEP [K7H] showed a protein stability index of 2.35. For DLNSKGIKREFRFHPIKETVVEEP [K7I], the protein stability index was 2.15. Work on DLNSKGLKREFRFHPIKETVVEEP [K7L] yielded a protein stability index of 1.62. DLNSKGMKREFRFHPIKETVVEEP [K7M] showed a protein stability index of 2.25. DLNSKGNKREFRFHPIKETVVEEP [K7N] gave a protein stability index of 2.23. For DLNSKGPKREFRFHPIKETVVEEP [K7P], the protein stability index was 1.94. Work on DLNSKGQKREFRFHPIKETVVEEP [K7Q] yielded a protein stability index of 2.54. DLNSKGRKREFRFHPIKETVVEEP [K7R] gave a protein stability index of 2.37. With DLNSKGSKREFRFHPIKETVVEEP [K7S] the protein stability index was 2.48. DLNSKGTKREFRFHPIKETVVEEP [K7T] showed a protein stability index of 2.79. In the case of DLNSKGVKREFRFHPIKETVVEEP [K7V], the protein stability index is reported as 2.54. DLNSKGWKREFRFHPIKETVVEEP [K7W] gave a protein stability index of 2.58. DLNSKGYKREFRFHPIKETVVEEP [K7Y] showed a protein stability index of 1.94. DLNSKGKAREFRFHPIKETVVEEP [K8A] gave a protein stability index of 1.74. DLNSKGKCREFRFHPIKETVVEEP [K8C] gave a protein stability index of 1.98. Variant DLNSKGKDREFRFHPIKETVVEEP [K8D] has a protein stability index of 3.35. DLNSKGKEREFRFHPIKETVVEEP [K8E] showed a protein stability index of 2.93. DLNSKGKFREFRFHPIKETVVEEP [K8F] gave a protein stability index of 2.09. Variant DLNSKGKGREFRFHPIKETVVEEP [K8G] has a protein stability index of 2.08. For DLNSKGKHREFRFHPIKETVVEEP [K8H], the protein stability index was 2. DLNSKGKIREFRFHPIKETVVEEP [K8I] gave a protein stability index of 2.24. DLNSKGKLREFRFHPIKETVVEEP [K8L] showed a protein stability index of 1.96. DLNSKGKMREFRFHPIKETVVEEP [K8M] gave a protein stability index of 1.93. Variant DLNSKGKNREFRFHPIKETVVEEP [K8N] has a protein stability index of 2.54. With DLNSKGKPREFRFHPIKETVVEEP [K8P] the protein stability index was 1.94. DLNSKGKQREFRFHPIKETVVEEP [K8Q] gave a protein stability index of 2.77. DLNSKGKRREFRFHPIKETVVEEP [K8R] gave a protein stability index of 1.52. For DLNSKGKSREFRFHPIKETVVEEP [K8S], the protein stability index was 2.23. Variant DLNSKGKTREFRFHPIKETVVEEP [K8T] has a protein stability index of 2.36. DLNSKGKVREFRFHPIKETVVEEP [K8V] showed a protein stability index of 1.73. DLNSKGKWREFRFHPIKETVVEEP [K8W] showed a protein stability index of 2.27. DLNSKGKYREFRFHPIKETVVEEP [K8Y] showed a protein stability index of 2.27. In the case of DLNSKGKKAEFRFHPIKETVVEEP [R9A], the protein stability index is reported as 2.87. Variant DLNSKGKKCEFRFHPIKETVVEEP [R9C] has a protein stability index of 2.31. In the case of DLNSKGKKDEFRFHPIKETVVEEP [R9D], the protein stability index is reported as 4.09. DLNSKGKKEEFRFHPIKETVVEEP [R9E] gave a protein stability index of 3.73.
